As a reminder, the EC50 (read off the curve) is the midpoint of the concentration-response curve.

From patent publication US20240400677A1 (ELECTRA THERAPEUTICS, published 2024) come the findings set out here.

Positions count from the first letter of the chain named.

T1: cynomolgus monkey SIRPγ on CHO cells (cynomolgus monkey, UniProt Q9P1W8 29-386 (human entry))
T1 construct: also called Cyno SIRPγ CHO
T1 chain: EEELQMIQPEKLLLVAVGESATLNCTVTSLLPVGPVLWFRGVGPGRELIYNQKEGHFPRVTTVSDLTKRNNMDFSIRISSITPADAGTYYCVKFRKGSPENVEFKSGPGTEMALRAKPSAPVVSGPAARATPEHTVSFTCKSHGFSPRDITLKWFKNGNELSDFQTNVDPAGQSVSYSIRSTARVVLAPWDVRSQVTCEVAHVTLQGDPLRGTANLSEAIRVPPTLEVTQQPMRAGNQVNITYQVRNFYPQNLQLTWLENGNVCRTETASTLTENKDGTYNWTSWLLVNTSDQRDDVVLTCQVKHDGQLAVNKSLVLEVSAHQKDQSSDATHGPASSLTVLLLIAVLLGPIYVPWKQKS

T2: cynomolgus monkey SIRPα on CHO cells (cynomolgus monkey, UniProt A0A2K5VYQ9 31-507)
T2 construct: whole, on cells; also called Cyno SIRPα CHO
T2 sequence: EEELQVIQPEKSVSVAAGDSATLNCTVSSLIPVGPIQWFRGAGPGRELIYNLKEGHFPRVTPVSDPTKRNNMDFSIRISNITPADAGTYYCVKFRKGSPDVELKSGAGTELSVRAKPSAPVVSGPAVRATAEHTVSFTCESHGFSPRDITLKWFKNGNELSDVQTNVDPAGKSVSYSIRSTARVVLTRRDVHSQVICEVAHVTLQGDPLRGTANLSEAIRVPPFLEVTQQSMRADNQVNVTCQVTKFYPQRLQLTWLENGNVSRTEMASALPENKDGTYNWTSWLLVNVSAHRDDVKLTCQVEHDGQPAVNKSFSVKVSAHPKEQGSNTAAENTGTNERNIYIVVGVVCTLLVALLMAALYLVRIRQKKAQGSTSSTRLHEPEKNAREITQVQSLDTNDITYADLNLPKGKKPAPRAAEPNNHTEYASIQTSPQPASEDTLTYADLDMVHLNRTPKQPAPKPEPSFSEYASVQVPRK

T3: Cynomolgus Monkey SIRPγ (plate-coated extracellular domain)
T3 construct: also called Cyno SIRPγ
T3 extracellular domain: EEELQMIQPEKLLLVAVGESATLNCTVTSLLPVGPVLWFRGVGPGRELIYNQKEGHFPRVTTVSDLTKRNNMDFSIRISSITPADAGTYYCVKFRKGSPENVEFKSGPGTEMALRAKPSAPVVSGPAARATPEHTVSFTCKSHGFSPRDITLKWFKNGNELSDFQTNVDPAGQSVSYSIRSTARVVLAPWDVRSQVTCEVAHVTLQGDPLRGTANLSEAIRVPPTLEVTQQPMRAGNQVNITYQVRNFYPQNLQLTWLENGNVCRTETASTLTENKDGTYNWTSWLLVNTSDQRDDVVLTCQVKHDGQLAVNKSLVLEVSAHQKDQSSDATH

T4: cynomolgus monkey SIRPγ-His monomer protein (cynomolgus monkey, UniProt Q9P1W8 29-359 (human entry), limits assumed)
T4 construct: also called Cyno SIRPγ; Cyno SIRPγ-His
T4 chain: T3 extracellular domain

B1: Antibody 30 (scFv, V domains shown)
VH: QVQLVQSGAEVKKPGASVKVSCKASGYTFTNFDINWVRQAPGQGLEWMGWISAYNGHTNYAQNLQGRVTMTRDTSTSTVYMELSSLRSEDTAVYYCAQEAAAGYFDYWGQGTLVTVSS
VL: DIQMTQSPSSLSASVGDRVTITCRASQDIRNDLAWYQQKPGKAPKLLIYDASNLETGVPSRFSGSGSGTDFTLTISSLQPEDFATYYCQQSYGTPYTFGQGTKLEIK
notes: scFv in crude PPE, V5/myc-tagged
B2: Antibody 23 (scFv, V domains shown)
VH: QVQLVQSGAEVKKPGASVKVSCKASGGTFSNYDINWVRQAPGQGLEWMGWISAYNGNTNYAQKLQGRVTMTRDTSTSTVYMELSSLRSEDTAVYYCAAEAYGDYSLDPWGQGTLVTVSS
VL: DIQMTQSPSSLSASVGDRVTITCQASQGISSYLNWYQQKPGKAPKLLIYAASSLQNGVPSRFSGSGSGTDFTLTISSLQPEDFATYYCQQSYSTPITFGQGTRLEIK
notes: as for B1
B3: Antibody 10 (scFv, V domains shown)
VH: QVQLVQSGAEVKKPGASVKVSCKASGGTFSNYDISWVRQAPGQGLEWMGMIDPSGGSTSYAQKFQGRVTMTRDTSTSTVYMELSSLRSEDTAVYYCARPYSSGWYYFDYWGQGTLVTVSS
VL: B1 VL with R24Q, R30H, D32Y, A34N, G93N, Y96P, K103R
notes: as for B1
B4: Antibody 25 (scFv, V domains shown)
VH: EVQLLESGGGLVQPGGSLRLSCAASGFTVGSWYMSWVRQAPGKGLEWVAHVSDDGSNEFYADSVKGRFTISRDNSKNTLYLQMNSLRAEDTAVYYCARSPGYCSSTSCYRYYGMDVWGQGTTVTVSS
VL: DIQMTQSPSSLSASVGDRVTITCRTSQSIGTYLNWYQQKPGKAPKLLIYDASNLPTGVPSRFSGSGSGTDFTLTISSLQPEDFATYYCQNYNSALFGPGTKVDIK
notes: as for B1
B5: Antibody 18 (scFv, V domains shown)
VH: QVQLVQSGAEVKKPGASVKVSCKASGYTFTGYYMHWVRQAPGQGLEWMGWMNPNSGNTGYAQKFQGRVTMTRDTSTSTVYMELSSLRSEDTAVYYCARGSGYDAGVFDYWGQGTLVTVSS
VL: B1 VL with D28G, R30G, S52K, N53D, E55H, T56P, G93S, T94F, Y96R, K103R
notes: as for B1
B6: Antibody 31 (scFv, V domains shown)
VH: QVQLVQSGAEVKKPGASVKVSCKASGGTFRSYAISWVRQAPGQGLEWMGWMNPNSGNTGYAQKFQGRVTMTRDTSTSTVYMELSSLRSEDTAVYYCARESVLKGGMDVWGQGTTVTVSS
VL: DIVMTQSPDSLAVSLGERATINCRSSQSLFHSSTNANNLAWYQQKPGQPPKLLIYWASTRESGVPDRFSGSGSGTDFTLTISSLQAEDVAVYYCQQYYITPLTFGQGTRLEIK
notes: as for B1
B7: Antibody 65 (antibody, V domains shown)
VH: QVQLVQSGAEVKKPGASVKVSCKASGYTFTSHDINWVRQAPGQGLEWMGWMNANNGNAGYAQKFQGRVTMTRDTSTSTVYMELSSLRSEDTAVYYCAKDLSPSSSWSTYYYYYGMDVWGQGTMVTVSS
VL: B2 VL with Q24R, G28S, S31N, Y32L, N34A, N56S, I96Y, R103K
B8: Antibody 71 (antibody, V domains shown)
VH: QVQLVQSGAEVKKPGASVKVSCKASGYTFTSYYIHWVRQAPGQGLEWMGTINPSGGSTSYAQKFQGRVTMTRDTSTSTVYMELSSLRSEDTAVYYCARETSRWLRDYYYGMDVWGQGTTVTVSS
VL: DIVMTQSPLSLPVTPGEPASISCRSSQSLLHSNGYNYLDWYLQKPGQSPQLLIYDASSLESGVPDRFSGSGSGTDFTLKISRVEAEDVGVYYCMQGTHWPLTFGGGTKVEIK

T5 sequence (Q9P1W8 29-360 limits assumed): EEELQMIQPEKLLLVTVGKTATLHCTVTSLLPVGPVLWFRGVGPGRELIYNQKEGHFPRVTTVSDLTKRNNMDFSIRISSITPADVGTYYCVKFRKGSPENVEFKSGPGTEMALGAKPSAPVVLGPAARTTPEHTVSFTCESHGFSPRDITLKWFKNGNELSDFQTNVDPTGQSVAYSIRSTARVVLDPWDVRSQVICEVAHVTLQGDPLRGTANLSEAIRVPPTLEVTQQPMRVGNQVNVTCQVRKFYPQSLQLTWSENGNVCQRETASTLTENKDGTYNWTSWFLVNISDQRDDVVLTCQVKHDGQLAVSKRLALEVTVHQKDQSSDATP

One assay has as its target T5, human SIRPγ-His monomer protein (human, UniProt Q9P1W8 29-360).
T5 construct: also called hSIRPγ
Briefly: BLI Octet, V5-scFv PPE captured, SIRP-His 500 nM. (BLI is a label-free optical method that tracks binding on a fibre tip over time.)
Consider B1, for which the kdis fell in the range of 0.001 to 0.01 s⁻¹.
B2 gave a kdis of 0.001 to 0.01 s⁻¹.
On the same count and under the same terms, under B3 stands 0.001 to 0.01 s⁻¹; under B4, 0.001 to 0.01 s⁻¹.
On the same count and under the same terms, to B5 belongs 0.001 to 0.01 s⁻¹.
The same measure, in the same setting: to B6 belongs 0.001 to 0.01 s⁻¹.

The target of the next assay is T6, human SIRPγ on stably transfected CHO cells (human, UniProt Q9P1W8 29-387).
T6 construct: also called Human SIRPγ CHO
T6 sequence (Q9P1W8 29-387 limits assumed): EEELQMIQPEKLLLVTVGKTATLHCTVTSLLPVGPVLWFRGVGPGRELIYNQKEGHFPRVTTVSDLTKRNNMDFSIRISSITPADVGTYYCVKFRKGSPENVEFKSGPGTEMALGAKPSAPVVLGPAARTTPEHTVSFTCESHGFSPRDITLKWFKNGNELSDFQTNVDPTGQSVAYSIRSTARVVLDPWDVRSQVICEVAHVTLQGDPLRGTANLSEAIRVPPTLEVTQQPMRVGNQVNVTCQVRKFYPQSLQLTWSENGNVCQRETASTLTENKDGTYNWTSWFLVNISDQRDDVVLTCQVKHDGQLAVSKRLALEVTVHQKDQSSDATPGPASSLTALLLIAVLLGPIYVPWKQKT
Briefly: flow cytometry, myc-scFv PPE. In short, it runs like this: (§1)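 Flow cytometry on stable CHO transfectants; antibody titration; fluorescent anti-human IgG detection; MFI per concentration. myc-tagged scFv: crude PPE on SIRP-expressing CHO and parental CHO-K1; fold change <2.0 = non-binder.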
(In general: A flow cytometer gives signals particle by particle.)
B1: the “MFI fold change over parental CHO” value is 5.94 fold.
Same read-out and setting: under B2 stands 21.6 fold.
Still for that read-out and setting: to B3 belongs 38.3 fold; to B4, 19.5 fold; to B5, 25.2 fold.
Same read-out and setting: under B6 stands 18.1 fold.

For the next assay, the target named is T1, cynomolgus monkey SIRPγ on CHO cells. The assay can be described thus: flow cytometry, myc-scFv PPE. In outline: as §1
For the molecule B1, the “MFI fold change over parental CHO” value amounted to 3.76 fold.
Same read-out and setting: to B2 belongs 16.5 fold; to B3, 23.1 fold.
On the same count and under the same terms, to B4 belongs 10.3 fold.
The same measure, in the same setting: to B5 belongs 16.2 fold; to B6, 21.3 fold.

Another assay has as its target T6, human SIRPγ on stably transfected CHO …. Briefly: flow cytometry, CHO transfectants, anti-human IgG. In outline:
as §1
Turning to B7, the “EC50 (read off the curve)” value was roughly 0.5 µg/mL.
Still for that read-out and setting: to B8 belongs roughly 0.1 µg/mL.

A further assay deals with T2, cynomolgus monkey SIRPα on CHO cells. Briefly: flow cytometry, CHO transfectants, anti-human IgG. In outline:
as §1
As to B7, the binding result is on record as “no binding (tested: about 20 µg/mL)”.
Still for that read-out and setting: to B8 belongs “no binding (tested: about 20 µg/mL)”.

Another assay deals with T7, human SIRPβ1 on CHO cells (co-transfected with DAP12) (human, UniProt O00241 30-398).
T7 construct: whole, on cells; co-transfected with DAP12; also called Human SIRPβ1 CHO
T7 sequence (O00241 30-398): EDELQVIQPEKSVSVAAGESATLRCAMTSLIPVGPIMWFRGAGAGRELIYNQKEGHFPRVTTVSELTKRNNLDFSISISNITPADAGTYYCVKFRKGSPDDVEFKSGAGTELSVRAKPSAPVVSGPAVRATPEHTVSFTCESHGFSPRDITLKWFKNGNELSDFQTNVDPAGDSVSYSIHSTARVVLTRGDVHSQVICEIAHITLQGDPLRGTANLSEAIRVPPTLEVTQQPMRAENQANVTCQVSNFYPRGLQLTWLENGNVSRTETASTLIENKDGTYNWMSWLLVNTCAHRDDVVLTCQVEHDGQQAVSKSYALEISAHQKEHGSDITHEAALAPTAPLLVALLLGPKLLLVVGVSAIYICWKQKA
The assay can be described thus: flow cytometry, CHO transfectants, anti-human IgG. In outline:
as §1
B7: the binding result was “no binding (tested: about 20 µg/mL)”.

A further assay addresses T2, cynomolgus monkey SIRPα on CHO cells. The assay can be described thus: flow cytometry.
On to B1, for which the binding result is “no binding (tested: fold change <2.0)”.
On the same count and under the same terms, under B2 stands “no binding (tested: fold change <2.0)”.
Consider B3, for which the binding result is “no binding (tested: fold change <2.0)”.
For the molecule B4, the binding result is reported as “no binding (tested: fold change <2.0)”.
Still for that read-out and setting: under B5 stands “no binding (tested: fold change <2.0)”; under B6, “no binding (tested: fold change <2.0)”.

The target of a further assay is T7, human SIRPβ1 on CHO cells …. Briefly: flow cytometry.
Take B1: the binding result is “no binding (tested: fold change <2.0)”.
Still for that read-out and setting: under B2 stands “no binding (tested: fold change <2.0)”; under B3, “no binding (tested: fold change <2.0)”.
The same measure, in the same setting: to B4 belongs “no binding (tested: fold change <2.0)”; to B5, “no binding (tested: fold change <2.0)”.
Take B6: the binding result is “no binding (tested: fold change <2.0)”.

The next assay deals with T8, extracellular binding domain of human SIRPγ (plate-coated) (human, UniProt Q9P1W8 29-360).
T8 construct: also called hSIRPγ
T8 sequence (Q9P1W8 29-360 limits assumed): as the sequence (Q9P1W8 29-360 limits assumed) above
The assay can be described thus: ELISA, coated SIRP ECD (2 µg/mL), anti-human IgG, luminescence. In short, it runs like this: (§2)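 Plate-coated SIRP extracellular domain (2 μg/mL), blocked, then exposed to purified antibodies in titration, after transient expression in Expi293F cells for 5 days and Protein A purification. Bound antibody is detected with anti-human IgG and a chemiluminescent substrate, and reported as relative luminescence units.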
Take B8: the “EC50 (read off the curve)” value was roughly 0.02 µg/mL.

A further assay addresses T3, Cynomolgus Monkey SIRPγ (plate-coated …). The description is as above. In short, it runs like this: as §2
Turning to B8, the “EC50 (read off the curve)” value is roughly 0.02 µg/mL.

The next assay concerns the target T4, cynomolgus monkey SIRPγ-His monomer …. The assay can be described thus: BLI Octet, captured scFv PPE, cyno SIRP. On the procedure: Unique binders were further tested for binding to human SIRPαV1, human SIRPαV2, and human SIRPβ1. Briefly, biotinylated anti-V5 was immobilized onto streptavidin biosensors. Each V5-tagged SIRPγ scFv antibody as crude PPE was captured by the anti-V5 antibody. SIRP-His monomer protein at 500 nM was exposed to the biosensor for binding to SIRP scFv. The biosensors were then exposed to wash buffer to measure off-rate kinetics. The resulting association and dissociation kinetics (kdis) was analyzed. […] Similarly, cross-reactivity to cynomolgus monkey SIRPγ, cynomolgus monkey SIRPα, and cynomolgus monkey SIRPβ1 were tested.
Take B1: the binding result is “binds”.
As for B2, the binding result was “binds”.
As to B3, the binding result was “binds”.
Still for that read-out and setting: under B4 stands “binds”; under B5, “binds”; under B6, “binds”.
